Reference: US20250154283A1 (published 2025)

T1: biotinylated cynomolgus monkey VWF cysteine knot (CK) domain construct (cynomolgus monkey, biotinylated in vitro (BirA) on the biotinylation tag; one N-glycan)
T1 construct: Expressed in HEK293 EBNA cells; disulfide-linked homodimer; also called cyno VWF CK; cyno VWF CK domain; not shown: in vitro biotinylation tag, HRV-3C site and 3 VWF residues before the CK domain
T1 chain: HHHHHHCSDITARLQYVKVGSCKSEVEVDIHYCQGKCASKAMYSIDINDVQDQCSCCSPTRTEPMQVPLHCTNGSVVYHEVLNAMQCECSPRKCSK


What was measured:
[1] = biological target: T2, biotinylated human VWF cysteine knot (CK) domain construct (human, UniProt P04275 2724-2813, biotinylated in vitro (BirA) on the biotinylation tag; one N-glycan); experiment: SPR, scFv captured via anti-SV5, CK domain injected, pH 5.5, apparent Kd;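 also: scFvs from crude yeast supernatants captured on chip-bound anti-SV5 antibody, Kd computed as koff divided by kon, dimeric CK construct likely makes affinity appear higher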
T2 construct: Expressed in HEK293 EBNA cells; disulfide-linked homodimer; also called human VWF CK; human VWF CK domain; not shown: in vitro biotinylation tag, HRV-3C site and 3 VWF residues before the CK domain

[2] = biological target: T2, biotinylated human VWF cysteine knot …; experiment: SPR, scFv captured via anti-SV5, CK domain injected, pH 7.4, apparent Kd;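 also: scFvs from crude yeast supernatants printed on an amine-coupled anti-SV5 lawn, Kd computed as koff over kon, likely overestimating affinity because the CK construct is dimeric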
Source text: (§1) Briefly, a sensor chip was activated and coupled with an anti-SV5 mouse monoclonal antibody using amine coupling. The soluble scFvs in crude yeast supernatants were printed on the anti-SV5 lawn. […] From the measured association (kₒₙ) and dissociation (koff) rate constants, an apparent equilibrium dissociation constant (Kd=koff/kₒₙ) was estimated. Due to the dimeric state of the CK construct and consequent possibility for simultaneous binding of captured scFv to both monomers in the CK dimer, the SPR setup was expected to overestimate the binding affinity.

[3] = biological target: T1, biotinylated cynomolgus monkey VWF …; experiment: as above
Source text: as §1

Row | Binder | Kd [1] [nM] | Kd [2] [nM] | Kd [3] [nM]
1 | Lib1_P1_C6_scFv (scFv, VH-linker-VL; not shown: C-terminal 3xFLAG and SV5 tags) scFv: QVQLVQSGAEVKKPGASVKVSCKVSGYTFASHYIHWVRQAPGKGLEWMGGMDPATGQTIYAQKFQGRVTMTEDTSTDTAYMELSSLKSEDTAVYYCAKGDRSSWYEVLSFQHWGQGTLVTVSSSGGSTITSYNVYYTKLSSSGTDIQMTQSPSSVSASVGDRVTITCRASQGISTDLAWYQQKPGKAPKLLIYDASILQRGVPSRFSGSGSGTDFTLTISSLQPEDFANYYCQQVRTYPFTFGGGTKVEIK | 1.43 | 0.691 | 0.697
2 | 3552_Lib8_scFv (scFv, VH-linker-VL; not shown: C-terminal 3xFLAG and SV5 tags) scFv: EVQLVESGGGLVQPGRSLRLSCAASEFTFGDYDMHWVRQAPGKGLEWVSAISSSGSNRDYADSVEGRFTISRDNAKNSLYLQMNSLRAEDTAVYYCARDAWFGDAFDIWGQGTMVTVSSSGGSTITSYNVYYTKLSSSGTDIQMTQSPSSLSASVGDRVTITCRASESVSSWLAWYQQKPGKAPKLLIYGASTLEGGVPSRFSGSGSGTDFTLTISSLQPEDVATYYCQQSYSFPDFGGGTKVEIK | 0.412 | 1.16 | 0.018
3 | Lib4_P2_A1_scFv (scFv, VH-linker-VL; not shown: C-terminal 3xFLAG and SV5 tags) scFv: QVQLQESGPGLVKPSQTLSLTCTVSGASFGDNYWSWIRQPPGKGLEWIGYIDTSGSSDYNPSLKSRVTMSVDTSKNQFSLKVNSVTAADTAVYYCARVSWGYYAMDVWGQGTTVTVSSSGGSTITSYNVYYTKLSSSGTEIVMTQSPATLSLSPGERATLSCRASQGISGRLAWYQQKPGQAPRLLIYDVSTRATGIPARFSGSGSGTDFTLTISSLEPEDFAVYYCQQYDTSAPLTFGGGTKVEIK | 0.235 | 1.2 | 0.031
4 | 4142_Lib1_scFv (scFv, VH-linker-VL; not shown: C-terminal 3xFLAG and SV5 tags) scFv: QVQLVQSGAEVKKPGASVKVSCKVSGYPFTSSGIHWVRQAPGKGLEWMGGVIPLFGTANYAQKFQGRVTMTEDTSTDTAYMELSSLKSEDTAVYYCARIRVSSGWYRDYGMDVWGQGTTVTVSSSGGSTITSYNVYYTKLSSSGTDIQMTQSPSSVSASVGDRVTITCRASQDITNDLAWYQQKPGKAPKLLIYDASRLQSGVPSRFSGSGSGTDFTLTISSLQPEDFANYYCQQTFTTPLTFGGGTKVEIK | 0.634 | 0.839 | 0.999
5 | 4029_Lib1_scFv (scFv, VH-linker-VL; not shown: C-terminal 3xFLAG and SV5 tags) scFv: QVQLVQSGAEVKKPGASVKVSCKVSGYPFTSSGIHWVRQAPGKGLEWMGGVIPLFGTANYAQKFQGRVTMTEDTSTDTAYMELSSLKSEDTAVYYCARIRVSSGWYRDYGMDVWGQGTTVTVSSSGGSTITSYNVYYTKLSSSGTDIQMTQSPSSVSASVGDRVTITCRASQSIGDFLAWYQQKPGKAPKLLIYDASHLQTGVPSRFSGSGSGTDFTLTISSLQPEDFANYYCQQTSTIPPTFGGGTKVEIK | 2.58 | 4.27 | 4.67
6 | Lib8_P4_C10_scFv (scFv, VH-linker-VL; not shown: C-terminal 3xFLAG and SV5 tags) scFv: EVQLVESGGGLVQPGRSLRLSCAASGFNFHNYDMHWVRQAPGKGLEWVSAISGSSDTMDYADSVEGRFTISRDNAKNSLYLQMNSLRAEDTAVYYCVRASWYGTFFDYWGQGTLVTVSSSGGSTITSYNVYYTKLSSSGTDIQMTQSPSSLSASVGDRVTITCRASQDISGWLAWYQQKPGKAPKLLIYAASSLQDGVPSRFSGSGSGTDFTLTISSLQPEDVATYYCQQSYRIPSTFGGGTKVEIK | 0.487 | 3.15 | 1.01
7 | 189_Lib4_scFv (scFv, VH-linker-VL; not shown: C-terminal 3xFLAG and SV5 tags) scFv: QVQLQESGPGLVKPSQTLSLTCTVSGVTFSSYGWSWIRQPPGKGLEWIGYVDTSGSTDYNPSLKSRVTMSVDTSKNQFSLKVNSVTAADTAVYYCARTTYYYDSSGFARGWFDPWGQGTLVTVSSSGGSTITSYNVYYTKLSSSGTEIVMTQSPATLSLSPGERATLSCRASQSVPSSHLAWYQQKPGQAPRLLIYDATNRAAGIPARFSGSGSGTDFTLTISSLEPEDFAVYYCQQYDNWPSPSFGGGTKVEIK | 0.269 | 1.37 | 0.441
8 | Lib4_P2_B4_scFv (scFv, VH-linker-VL; not shown: C-terminal 3xFLAG and SV5 tags) scFv: QVQLQESGPGLVKPSQTLSLTCTVSGASLGDQYWSWIRQPPGKGLEWIGYIHPSGDFDYNPSLKSRVTMSVDTSKNQFSLKVNSVTAADTAVYYCARHYSSSWYGTWYFDLWGRGTLVTVSSSGGSTITSYNVYYTKLSSSGTEIVMTQSPATLSLSPGERATLSCRASQNIGTNLAWYQQKPGQAPRLLIYDASVRAAGIPARFSGSGSGTDFTLTISSLEPEDFAVYYCQQSLTTPLTFGGGTKVEIK | 0.225 | 1.07 | 0.096
9 | Lib4_P2_A5_scFv (scFv, VH-linker-VL; not shown: C-terminal 3xFLAG and SV5 tags) scFv: QVQLQESGPGLVKPSQTLSLTCTVSGSSISSSSDYWSWIRQPPGKGLEWIGYIDISGDADYNPSLKSRVTMSVDTSKNQFSLKVNSVTAADTAVYYCARHLSSGWYGTYYFDYWGQGTLVTVSSSGGSTITSYNVYYTKLSSSGTEIVMTQSPATLSLSPGERATLSCRASQNIHSNLAWYQQKPGQAPRLLIYDASSRATGIPARFSGSGSGTDFTLTISSLEPEDFAVYYCQQGYTKPLTFGGGTKVEIK | 0.123 | 0.493 | 0.128
10 | 2738_Lib1_scFv (scFv, VH-linker-VL; not shown: C-terminal 3xFLAG and SV5 tags) scFv: QVQLVQSGAEVKKPGASVKVSCKVSGYTLTDLPIHWVRQAPGKGLEWMGGINPFLGTTIYAQKFQGRVTMTEDTSTDTAYMELSSLKSEDTAVYYCARGVDMLATARDYYYMAIWGKGTTVTVSSSGGSTITSYNVYYTKLSSSGTDIQMTQSPSSVSASVGDRVTITCRASQSIGNDLAWYQQKPGKAPKLLIYGASMRATGVPSRFSGSGSGTDFTLTISSLQPEDFANYYCQQYASDPLTFGGGTKVEIK | 0.519 | 1.18 | 0.922
11 | 4166_Lib4_scFv (scFv, VH-linker-VL; not shown: C-terminal 3xFLAG and SV5 tags) scFv: QVQLQESGPGLVKPSQTLSLTCTVSGESFSGHFWSWIRQPPGKGLEWIGYISQSGRTDYNPSLKSRVTMSVDTSKNQFSLKVNSVTAADTAVYYCARTLPRIQLWSPRGAFDIWGQGTMVTVSSSGGSTITSYNVYYTKLSSSGTEIVMTQSPATLSLSPGERATLSCRASQSLGRSLAWYQQKPGQAPRLLIYDASHRATGIPARFSGSGSGTDFTLTISSLEPEDFAVYYCQQYVSYPLTFGGGTKVEIK | 0.567 | 0.958 | 0.38
12 | Lib1_P1_E9_scFv (scFv, VH-linker-VL; not shown: C-terminal 3xFLAG and SV5 tags) scFv: QVQLVQSGAEVKKPGASVKVSCKVSGYTFTSHIIHWVRQAPGKGLEWMGGMNPYSNKAIYAQKFQGRVTMTEDTSTDTAYMELSSLKSEDTAVYYCARDASDYGDYGYYYYYMDVWGKGTTVTVSSSGGSTITSYNVYYTKLSSSGTDIQMTQSPSSVSASVGDRVTITCRASQYIGNDLAWYQQKPGKAPKLLIYEASQRPSGVPSRFSGSGSGTDFTLTISSLQPEDFANYYCQQQYNYPLTFGGGTKVEIK | 0.639 | 0.915 | 0.536
13 | Lib8_P4_D4_scFv (scFv, VH-linker-VL; not shown: C-terminal 3xFLAG and SV5 tags) scFv: QVQLVQSGAEVKKPGASVKVSCKVSGDTLSNYAIHWVRQAPGKGLEWMGGINPNAGTTIYAQKFQGRVTMTEDTSTDTAYMELSSLKSEDTAVYYCARDSSSWCPVGYYYYYMDVWGKGTTVTVSSSGGSTITSYNVYYTKLSSSGTDIQMTQSPSSVSASVGDRVTITCRASQSIGDFLAWYQQKPGKAPKLLIYDASHLQTGVPSRFSGSGSGTDFTLTISSLQPEDFANYYCQQTSTIPPTFGGGTKVEIK | 0.397 | 0.917 | 0.206
14 | Lib8_P4_C11_scFv (scFv, VH-linker-VL; not shown: C-terminal 3xFLAG and SV5 tags) scFv: QVQLVQSGAEVKKPGASVKVSCKVSGDTLSNYAIHWVRQAPGKGLEWMGGINPNAGTTIYAQKFQGRVTMTEDTSTDTAYMELSSLKSEDTAVYYCARDSSSWCPVGYYYYYMDVWGKGTTVTVSSSGGSTITSYNVYYTKLSSSGTDIQMTQSPSSVSASVGDRVTITCRASQSIGDFLAWYQQKPGKAPKLLIYDASHLQTGVPSRFSGSGSGTDFTLTISSLQPEDFANYYCQQTSTIPPTFGGGTKVEIK | 0.617 | 1.08 | 0.155
15 | Lib1_P1_A1_scFv (scFv, VH-linker-VL; not shown: C-terminal 3xFLAG and SV5 tags) scFv: QVQLVQSGAEVKKPGASVKVSCKVSGDTLSNYAIHWVRQAPGKGLEWMGGINPNAGTTIYAQKFQGRVTMTEDTSTDTAYMELSSLKSEDTAVYYCARDSSSWSQFGYYYYYMDVWGKGTTVTVSSSGGSTITSYNVYYTKLSSSGTDIQMTQSPSSVSASVGDRVTITCRASQSIGDFLAWYQQKPGKAPKLLIYDASHLQTGVPSRFSGSGSGTDFTLTISSLQPEDFANYYCQQTSTIPPTFGGGTKVEIK | 0.202 | 1.38 | 1.08
16 | 3964_Lib4_scFv (scFv, VH-linker-VL; not shown: C-terminal 3xFLAG and SV5 tags) scFv: QVQLQESGPGLVKPSQTLSLTCTVSGASISTHSWSWIRQPPGKGLEWIGYINPSGDIDYNPSLKSRVTMSVDTSKNQFSLKVNSVTAADTAVYYCARGRTGFDSSGFVVGAFDIWGQGTMVTVSSSGGSTITSYNVYYTKLSSSGTEIVMTQSPATLSLSPGERATLSCRASQNVNDNLAWYQQKPGQAPRLLIYDASTRPTGIPARFSGSGSGTDFTLTISSLEPEDFAVYYCQQYLTIPRTFGGGTKVEIK | 0.737 | 1.13 | 0.689
17 | Lib1_P1_D1_scFv (scFv, VH-linker-VL; not shown: C-terminal 3xFLAG and SV5 tags) scFv: QVQLVQSGAEVKKPGASVKVSCKVSGDTFTDRYIHWVRQAPGKGLEWMGGINTIFGTAIYAQKFQGRVTMTEDTSTDTAYMELSSLKSEDTAVYYCAREGATVSTNFDYWGQGTLVTVSSSGGSTITSYNVYYTKLSSSGTDIQMTQSPSSVSASVGDRVTITCRASQDIRKSLAWYQQKPGKAPKLLIYDISNRPSGVPSRFSGSGSGTDFTLTISSLQPEDFANYYCQQGYSAPYGFGGGTKVEIK | 0.338 | 0.589 | 0.187
